From patent US20050118668A1 (WISCONSIN ALUMNI RESEARCH FOUNDATION, published 2005)

Target: T1, T4moD (UniProt Q00459 2-103)
T1 construct: also called 11.6 kDa effector protein of the toluene-4-monooxygenase complex
T1 sequence: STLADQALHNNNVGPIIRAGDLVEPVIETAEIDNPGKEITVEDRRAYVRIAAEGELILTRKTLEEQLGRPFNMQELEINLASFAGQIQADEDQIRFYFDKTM
Assay: fluorescence anisotropy titration of 0.97 nM apo-fACP with T4moD

B1: apo-fACP (other)
chain: STIEERVKKIIGEQLGVKQEEVTNNASFVEDLGADSLDTVELVMALEEEFDTEIPDEEAEKITTVQAAIDYINGHQA
notes: mature; also called fACP (apo form, lacking phosphopantetheine)
  binding result: no binding
